Measurements published in publication doi:10.1101/2020.12.18.423546 (bioRxiv, 2020).

Key:
[1] = target: the molecule itself; test: cross-linking
[2] = target: the molecule itself; test: SEC-MALS

B1: Bax (α2-α5) (human Bax residues D53 to K128 with C62S and C126S mutations) (domain or fragment)
chain: DASTKKLSESLKRIGDELDSNMELQRMIAAVDTDSPREVFFRVAADMFSDGNFNWGRVVALFYFASKLVLKALSTK
For B1, the “stoichiometry N” value [1] was 2 and the “stoichiometry N” value [2] was 4.
